The text below walks through data of article doi:10.1101/2024.07.08.602551, “An avidity-driven mechanism of extracellular BMP regulation by Twisted gastrulation” (bioRxiv, 2024).

The Kd is the concentration at which binding is half-saturated.

This test deals with T1, human ΔN-Chordin (human, UniProt Q9H2X0 127-955).
T1 construct: Chordin, human, truncated form missing the N-terminal vWC1 domain but retaining the C-terminal vWC2-4 domains; source: purified, recombinantly expressed; prepared as described previously (Troilo et al., 2014)
T1 sequence (looked up): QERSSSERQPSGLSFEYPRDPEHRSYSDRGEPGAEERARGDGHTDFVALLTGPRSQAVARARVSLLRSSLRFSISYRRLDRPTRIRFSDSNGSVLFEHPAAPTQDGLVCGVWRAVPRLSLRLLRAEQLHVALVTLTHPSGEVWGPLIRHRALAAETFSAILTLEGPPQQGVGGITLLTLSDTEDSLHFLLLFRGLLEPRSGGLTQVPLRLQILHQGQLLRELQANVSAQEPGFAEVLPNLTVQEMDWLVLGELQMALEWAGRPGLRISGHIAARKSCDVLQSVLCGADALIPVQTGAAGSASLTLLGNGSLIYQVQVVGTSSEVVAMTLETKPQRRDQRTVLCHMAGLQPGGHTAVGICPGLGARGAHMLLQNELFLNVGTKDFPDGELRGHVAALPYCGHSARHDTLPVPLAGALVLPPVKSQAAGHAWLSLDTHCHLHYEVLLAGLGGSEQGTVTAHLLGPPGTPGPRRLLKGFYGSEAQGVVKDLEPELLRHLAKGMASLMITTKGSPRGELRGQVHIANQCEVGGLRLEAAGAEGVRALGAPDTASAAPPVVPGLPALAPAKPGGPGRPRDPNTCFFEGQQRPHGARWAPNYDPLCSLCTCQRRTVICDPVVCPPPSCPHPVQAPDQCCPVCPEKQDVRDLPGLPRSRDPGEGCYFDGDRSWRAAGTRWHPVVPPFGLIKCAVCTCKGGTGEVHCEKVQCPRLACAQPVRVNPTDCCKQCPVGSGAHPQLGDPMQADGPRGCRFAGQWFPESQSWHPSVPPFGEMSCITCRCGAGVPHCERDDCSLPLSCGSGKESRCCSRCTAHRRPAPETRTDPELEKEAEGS
As to the kind of experiment: SPR; Biacore T200; wildtype or mutant Tsg immobilised on CM5 by amine coupling (350 RU); analyte (ΔN-Chordin or CHRDL2) in a two-fold series, 30 μl/min, 200 s, 300 s dissociation; 20 mM HEPES, 150 mM NaCl, 0.05% Tween20, pH 7.4, 25°C; Langmuir 1:1 fit; triplicate. To be noted: both partners purified.

B1: human Twisted gastrulation (residues Cys26-Phe223) (natural protein, UniProt Q9GZX9 26-223, looked up)
chain: CNKALCASDVSKCLIQELCQCRPGEGNCSCCKECMLCLGALWDECCDCVGMCNPRNYSDTPPTSKSTVEELHEPIPSLFRALTEGDTQLNWNIVSFPVAEELSHHENLVSFLETVNQPHHQNVSVPSNNVHAPYSSDKEHMCTVVYFDDCMSIHQCKISCESMGASKYRWFHNACCECIGPECIDYGSKTVKCMNCMF
notes: Cloned in the vector pHLsec (Addgene_99845) between AgeI and KpnI; secreted; also called Tsg; human Tsg; source: Expi293-F cells, transfected, purified from conditioned media (Strep-Tactin XT, SEC)
For the molecule B1, the dissociation constant Kd stood at 14 nM.

B2: human Twisted gastrulation Leu107Ala (natural protein, UniProt Q9GZX9 26-223, looked up)
chain: CNKALCASDVSKCLIQELCQCRPGEGNCSCCKECMLCLGALWDECCDCVGMCNPRNYSDTPPTSKSTVEELHEPIPSLFRAATEGDTQLNWNIVSFPVAEELSHHENLVSFLETVNQPHHQNVSVPSNNVHAPYSSDKEHMCTVVYFDDCMSIHQCKISCESMGASKYRWFHNACCECIGPECIDYGSKTVKCMNCMF
notes: Twisted gastrulation (Tsg), human, residues Cys26-Phe223, with the point mutation L107A; Point mutant of m1 made by PCR and In-Fusion cloning; also called Tsg^L107A; source: Expi293-F cells, transfected, purified from conditioned media (Strep-Tactin XT, SEC)
For B2, the affinity, expressed as Kd, was 60 nM.
